What was measured:
[1] = Bioavailability and pharmacokinetics of peptide fused to GM1-C4:0 in rat (gastric route or intravenous injection); settings: day one after intravenous injection
Protocol: Next, the bioavailability and pharmacokinetics of a peptide fused to GM-C4:0 was tested in vivo in rat.

[2] = mouse, in vivo, 2.5 nmol/kg
Protocol: The dose was 2.5 nmol/kg for 7 week old C57B/6J with an intranasal administration volume of 10 μL and an intraperitoneal injection volume of 200 μL.

[3] = test system: human microvascular endothelial cells (HMECs); experiment: Confocal fluorescence microscopy of lysosomal transport of GM1-peptides in HMECs; type: cell-based; settings: 2 μM, 1 hour continuous uptake, Lysotracker-Red
Protocol: FIGS. 25A-25C. Confocal fluorescence microscopy images of lysosomal transport of GM1-peptides. (FIG. 25A) A schematic of endosomal sorting in human microvascular endothelial cells (HMECs). (FIG. 25B) Images HMECs incubated either with C16:0-GM1-peptide (top panels), or peptide alone (bottom panel). Cells were treated with 2 μM fluorescently green labeled compound for 1 hour for continuous uptake on coverslips, and imaged in the presence of Lysotracker-Red (red). […] Scale bars=10 μm.

MDCK cells = experiment: Transcytosis in MDCK cells (transwell assay, streptavidin pull-down, fluorescence)
Protocol: The in vitro transport (transcytosis) of the peptide-GM1 conjugates across a monolayer of MDCK cells, and in vivo transport across an intestinal or nasal barrier into the blood are assessed. The peptide alone are used as negative controls, and the GM1 analogs as positive controls. C6, and C12 fatty acid analogs of ceramide were also included in the experiments as direct comparisons to the GM1 and GM3 species.
MDCK cells were seeded in 0.33 cm^2 inserts 3 days prior in media containing HBSS and […] defatted BSA. Electrical resistance was checked on day of experiment.
• 1) peptide Control • 2) GM1-C6:0-peptide • 3) Peptide-C12 fatty acid • 4) Ceramide-C2-
• 1) Check electrical resistance by EVOM. • 2) Prepare stock solutions above. • 3) Wash cells apical and basolateral with HBSS, without FBS. […]
• 1) Washed Stretavidin Magnetic beads with TBS-T 4×, to remove azide. • 2) Resuspend heads in 800 uL TBS then aliquoted 50 uL out to each tube • 3) Add 1000 μL to streptavidin heads overnight at 4° C. with rotation O/N covered in foil. • 4) Remove media and wash 3×TBS-T. • 5) Elute by addition of 220 ul 95% Formamide. 10 mM EDTA 0.4 mg/ml biotin—2 min@65° C. • 6) Pipetted 100 uL of each sample×2 on 96 well plate • 7) Fluorescence was read out on a microplate reader for Fluorescein channel, and against a standard curve. […]

[4] = mice, gastric gavage
Protocol: FIGS. 4A-4D. In vivo mouse studies. Absorption from intestine into blood for GM-fusion molecules 15 and 30 minutes after gastric gavage (FIG. 4A), and absorption from intestine into liver for GM-fusion molecules 1 hour after gastric gavage (FIG. 4B) are shown. […] Time course for absorption into blood was plotted (FIG. 4C). N=3 independent studies.

[5] = Nasal absorption of ceramide-C6 reporter peptide conjugate in mice; type: in vivo, C57BL/6J mice; settings: 2 nmol/kg, blood 15 minutes post dose
Protocol: A reporter peptide was conjugated to a ceramide-C6 (Cer-C6) was administered to C57BL/6J mice (n=1, from Jackson Labs) at a dose of 2 nmol/kg. GM1-C6 conjugated to the same reported peptide was used as control. A total of 5 μl per nostril was administered over 5 minutes under isoflurane. Blood was collected via cardiac puncture 15 minutes post dose and the amount of the conjugate was evaluated by pulling down with magnetic streptavidin beads followed by elution and plate fluorescence measurement.

T84 intestinal cells = experiment: Transcytosis across T84 intestinal cells; type: in vitro ADME

Molecule: N=C(N)NCCC[C@@H](NC(=O)CNC(=O)[C@@H](Cc1ccc(O)cc1)NC(=O)CNC(=O)[C@@H](CO)NC(=O)CNC(=O)[C@@H](CCCCNC(=O)CCCC[C@@H]1SC[C@@H]2NC(=O)N[C@@H]21)NC(=O)[C@H](N)Cc1cn(CCCCCCNC(=O)c2ccc(-c3c4ccc(=N)c(S(=O)(=O)O)c-4oc4c(S(=O)(=O)O)c(N)ccc34)c(C(=O)O)c2)nn1)C(=O)NCC(=O)N[C@H](CO)C(=O)NCC(=O)N[C@H](CCCCNC(=O)CON)C(N)=O [peptide alone]
- level in rat serum [1]: 10.8 nmol/kg
- bioavailability [2]: 1.3%
- intracellular localization [3]: did not enter into cells
- transcytosis across MDCK cell monolayer (MDCK cells; apical to basolateral, 37° C.): did not cross the epithelial barrier
- absorption from intestine into blood and liver [4]: not absorbed

Molecule: AF488-LC9-oxime-C6-ceramide [Cer-C6]
- transport with 4° C. temperature block (MDCK cells; MDCK): reduced the uptake
- absorption via the nose [5]: absorbed more efficiently than peptide conjugated to GM1-C6
- absorption via the nose ([5]; listed as ceramide C6): absorbed via the nose
- absorption via the nose ([5]; listed as ceramide-C6-reporter peptide conjugate): can be absorbed via nose in mice
- transcytosis across T84 intestinal cells (T84 intestinal cells): greater than for peptides fused to GM1 or GM3 species

Molecule: CCCCCCCCCCCCC/C=C/[C@@H](O)[C@H](CO[C@@H]1O[C@H](CO)[C@@H](O[C@@H]2O[C@H](CO)[C@H](O[C@@H]3O[C@H](CO)[C@H](O)[C@H](O[C@@H]4O[C@H](CO)[C@H](O)[C@H](O)[C@H]4O)[C@H]3NC(C)=O)[C@H](O[C@]3(C(=O)O)C[C@H](O)[C@@H](NC(C)=O)[C@H](C=NOCC(=O)NCCCC[C@@H](NC(=O)CNC(=O)[C@@H](CO)NC(=O)CNC(=O)[C@@H](CCCNC(=N)N)NC(=O)CNC(=O)[C@@H](Cc4ccc(O)cc4)NC(=O)CNC(=O)[C@@H](CO)NC(=O)CNC(=O)[C@@H](CCCCNC(=O)CCCC[C@@H]4SC[C@@H]5NC(=O)N[C@@H]54)NC(=O)[C@H](N)Cc4cn(CCCCCCNC(=O)c5ccc(-c6c7ccc(=N)c(S(=O)(=O)O)c-7oc7c(S(=O)(=O)O)c(N)ccc67)c(C(=O)O)c5)nn4)C(N)=O)O3)[C@H]2O)[C@H](O)[C@H]1O)NC(=O)CCCCC [peptide fused to GM1-C6:0]
- bioavailability [2]: 24.4%

Molecule: glucagon-like peptide-1 (GLP-1) [GLP-1 peptide alone]
- effect on glucose metabolism in glucose tolerance test (mice, gastric gavage): no detectable effect on glucose metabolism
- absorption after gastric gavage (mouse, in vivo): not absorbed

From patent US12296016B2, “Ceramide-like lipid-based delivery vehicles and uses thereof” (Children's Medical Center Corporation, priority 2018, dated 2025)
